The record followed here is ChEMBL document CHEMBL4825729, “Modulators of immunoregulatory exonucleases PLD3 and PLD4 identified by high-throughput screen” (Bioorg Med Chem Lett, 2021).

Data set [1] concerns the target T1, 5'-3' exonuclease PLD3 (Homo sapiens) (UniProt Q8IV08).
T1 sequence (whole entry): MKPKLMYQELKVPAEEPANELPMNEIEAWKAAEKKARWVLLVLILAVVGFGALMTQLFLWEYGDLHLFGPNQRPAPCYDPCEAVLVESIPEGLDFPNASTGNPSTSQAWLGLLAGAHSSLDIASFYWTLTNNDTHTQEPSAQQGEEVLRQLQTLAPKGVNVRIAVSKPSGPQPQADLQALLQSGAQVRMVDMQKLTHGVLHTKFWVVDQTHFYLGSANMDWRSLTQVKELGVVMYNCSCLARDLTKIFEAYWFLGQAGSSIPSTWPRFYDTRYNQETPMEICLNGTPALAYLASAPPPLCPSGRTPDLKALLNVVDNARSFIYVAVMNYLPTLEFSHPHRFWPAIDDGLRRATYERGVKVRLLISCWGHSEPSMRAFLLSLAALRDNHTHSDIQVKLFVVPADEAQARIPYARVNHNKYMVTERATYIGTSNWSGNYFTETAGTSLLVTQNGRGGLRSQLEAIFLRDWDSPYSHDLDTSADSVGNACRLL
The data set is described as follows: Mixed type inhibition of PLD3 (unknown origin) assessed as binding constant using varying concentration 3'-dT-MUP as substrate by fluorescence-based screening assay.

Data set [2] addresses T1, 5'-3' exonuclease PLD3 (Homo sapiens). The data set is described as follows: Mixed type inhibition of PLD3 (unknown origin) assessed as Km using varying concentration 3'-dT-MUP as substrate by fluorescence-based screening assay.
In data set [3] the target is T2, 5'-3' exonuclease PLD3 (Homo sapiens, UniProt Q8IV08).
T2 sequence (Q8IV08 whole entry): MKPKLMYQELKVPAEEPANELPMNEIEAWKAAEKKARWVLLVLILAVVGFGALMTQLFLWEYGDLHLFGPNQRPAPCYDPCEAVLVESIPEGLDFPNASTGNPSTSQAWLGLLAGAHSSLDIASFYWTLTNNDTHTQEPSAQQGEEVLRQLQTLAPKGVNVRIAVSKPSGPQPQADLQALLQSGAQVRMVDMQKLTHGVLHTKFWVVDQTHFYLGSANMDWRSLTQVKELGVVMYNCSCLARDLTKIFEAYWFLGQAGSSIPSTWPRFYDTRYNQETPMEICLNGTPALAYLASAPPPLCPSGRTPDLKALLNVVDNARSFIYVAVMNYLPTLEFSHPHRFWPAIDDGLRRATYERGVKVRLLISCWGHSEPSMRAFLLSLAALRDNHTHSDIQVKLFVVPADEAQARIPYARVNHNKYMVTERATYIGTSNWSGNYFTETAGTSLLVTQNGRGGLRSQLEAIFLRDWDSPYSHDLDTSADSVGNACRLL
The data set is described as follows: Inhibition of PLD3 (unknown origin) using 3'-dT-nNPP as substrate by fluorescence-based screening assay.

The target in data set [4] is T2, 5'-3' exonuclease PLD3. The data set is described as follows: Inhibition of PLD3 (unknown origin) using 3'-dT-MUP as substrate by fluorescence-based screening assay.
Data set [5] deals with T3, 5'-3' exonuclease PLD4 (Homo sapiens, UniProt Q96BZ4).
T3 sequence (Q96BZ4 whole entry): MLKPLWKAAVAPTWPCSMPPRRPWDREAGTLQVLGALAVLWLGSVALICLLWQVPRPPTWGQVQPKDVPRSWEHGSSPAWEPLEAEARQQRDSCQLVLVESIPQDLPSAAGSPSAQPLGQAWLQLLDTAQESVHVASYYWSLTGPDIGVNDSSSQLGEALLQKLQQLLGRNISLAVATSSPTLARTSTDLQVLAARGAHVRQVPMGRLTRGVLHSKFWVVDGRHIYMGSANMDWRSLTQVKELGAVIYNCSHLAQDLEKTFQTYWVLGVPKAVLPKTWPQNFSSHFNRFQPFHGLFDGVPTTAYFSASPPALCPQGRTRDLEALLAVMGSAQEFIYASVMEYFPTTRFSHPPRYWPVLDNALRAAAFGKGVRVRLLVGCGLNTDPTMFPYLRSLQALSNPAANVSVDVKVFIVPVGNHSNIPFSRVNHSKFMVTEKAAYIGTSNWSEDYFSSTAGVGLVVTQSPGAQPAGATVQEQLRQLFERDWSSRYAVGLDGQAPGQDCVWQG
The data set is described as follows: Inhibition of PLD4 (unknown origin) using 3'-dT-MUP as substrate by fluorescence-based screening assay.

Data set [6] concerns the target T3, 5'-3' exonuclease PLD4. The data set is described as follows: Inhibition of PLD4 (unknown origin) using 3'-dT-nNPP as substrate by fluorescence-based screening assay.
Substrate in data set [7]: Cc1cn([C@H]2C[C@H](O)[C@@H](COP(=O)(O)Oc3ccc([N+](=O)[O-])cc3)O2)c(=O)[nH]c1=O
The data set is described as follows: (§1) Substrate activity at PLD4 (unknown origin) assessed as Kcat by Michaelis-Menten kinetic model based fluorescence assay. The following applies: Homo sapiens.

Substrate in data set [8]: Cc1cn([C@H]2C[C@H](OP(=O)(O)Oc3ccc([N+](=O)[O-])cc3)[C@@H](CO)O2)c(=O)[nH]c1=O
The description is as §1. The following applies: Homo sapiens.

Substrate in data set [9]: Cc1cn([C@H]2C[C@H](O)[C@@H](COP(=O)(O)Oc3ccc([N+](=O)[O-])cc3)O2)c(=O)[nH]c1=O
The data set is described as follows: (§2) Substrate activity at PLD4 (unknown origin) assessed as Km by Michaelis-Menten kinetic model based fluorescence assay. The following applies: Homo sapiens.

Substrate in data set [10]: Cc1cn([C@H]2C[C@H](OP(=O)(O)Oc3ccc([N+](=O)[O-])cc3)[C@@H](CO)O2)c(=O)[nH]c1=O
Described as §2. The following applies: Homo sapiens.

Compound in data set [11]: Cc1cc(C)cc(N2CCn3c2nc2c3c(=O)n(CC(=O)O)c(=N)n2C)c1
The data set is described as follows: Competitive inhibition of PLD4 (unknown origin) assessed as Vmax using varying concentration 3'-dT-MUP as substrate by fluorescence-based screening assay. The following applies: Homo sapiens.

Substrate in data set [12]: Cc1cn([C@H]2C[C@H](O)[C@@H](COP(=O)(O)Oc3ccc([N+](=O)[O-])cc3)O2)c(=O)[nH]c1=O
The data set is described as follows: (§3) Substrate activity at PLD4 (unknown origin) assessed as ratio of Kcat to Km by Michaelis-Menten kinetic model based fluorescence assay. The following applies: Homo sapiens.

Substrate in data set [13]: Cc1cn([C@H]2C[C@H](OP(=O)(O)Oc3ccc([N+](=O)[O-])cc3)[C@@H](CO)O2)c(=O)[nH]c1=O
The description is as §3. The following applies: Homo sapiens.

Compound in data set [14]: Cc1ccc(Cn2c(SCC(=O)O)nc3c2c(=O)n(C)c(=O)n3C)cc1
The data set is described as follows: (§4) Mixed type inhibition of PLD3 (unknown origin) assessed as Vmax using varying concentration 3'-dT-MUP as substrate by fluorescence-based screening assay. The following applies: Homo sapiens.

Compound in data set [15]: Cc1cc(C)cc(N2CCn3c2nc2c3c(=O)n(CC(=O)O)c(=N)n2C)c1
The data set is described as §4. The following applies: Homo sapiens.

Substrate in data set [16]: Cc1cn([C@H]2C[C@H](O)[C@@H](COP(=O)(O)Oc3ccc([N+](=O)[O-])cc3)O2)c(=O)[nH]c1=O
The data set is described as follows: (§5) Substrate activity at PLD3 (unknown origin) assessed as ratio of Kcat to Km by Michaelis-Menten kinetic model based fluorescence assay. The following applies: Homo sapiens.

Substrate in data set [17]: Cc1cn([C@H]2C[C@H](OP(=O)(O)Oc3ccc([N+](=O)[O-])cc3)[C@@H](CO)O2)c(=O)[nH]c1=O
Described as §5. The following applies: Homo sapiens.

Substrate in data set [18]: Cc1cn([C@H]2C[C@H](O)[C@@H](COP(=O)(O)Oc3ccc([N+](=O)[O-])cc3)O2)c(=O)[nH]c1=O
The data set is described as follows: (§6) Substrate activity at PLD3 (unknown origin) assessed as Kcat by Michaelis-Menten kinetic model based fluorescence assay. The following applies: Homo sapiens.

Substrate in data set [19]: Cc1cn([C@H]2C[C@H](OP(=O)(O)Oc3ccc([N+](=O)[O-])cc3)[C@@H](CO)O2)c(=O)[nH]c1=O
Described as §6. The following applies: Homo sapiens.

Compound in data set [20]: Cc1nc(SCC(=O)N2CCC(C)CC2)c2ccsc2n1
The data set is described as follows: Activation of PLD3 (unknown origin) assessed as Vmax using varying concentration 3'-dT-MUP as substrate by fluorescence-based screening assay. The following applies: Homo sapiens; filed as activator.

Compound in data set [21]: Cc1nc(SCC(=O)N2CCC(C)CC2)c2ccsc2n1
The data set is described as follows: Activation of PLD3 (unknown origin) assessed as Km using varying concentration 3'-dT-MUP as substrate by fluorescence-based screening assay. The following applies: Homo sapiens; filed as activator.

Substrate in data set [22]: Cc1cn([C@H]2C[C@H](O)[C@@H](COP(=O)(O)Oc3ccc([N+](=O)[O-])cc3)O2)c(=O)[nH]c1=O
The data set is described as follows: (§7) Substrate activity at PLD3 (unknown origin) assessed as Km by Michaelis-Menten kinetic model based fluorescence assay. The following applies: Homo sapiens.

Substrate in data set [23]: Cc1cn([C@H]2C[C@H](OP(=O)(O)Oc3ccc([N+](=O)[O-])cc3)[C@@H](CO)O2)c(=O)[nH]c1=O
The data set is described as §7. The following applies: Homo sapiens.

The term IC50 denotes the midpoint of a concentration-inhibition curve. The low end stands for higher potency, the high end for lower potency. Turning to `Cc1ccc(Cn2c(SCC(=O)O)nc3c2c(=O)n(C)c(=O)n3C)cc1`, the INH in data set [1] was 6.2 µM; in [2] it was 13.6 µM. The IC50 amounted to 8.9 µM against 5'-3' exonuclease PLD3 [3], 13 µM at 5'-3' exonuclease PLD3 [4], 142 µM against 5'-3' exonuclease PLD4 [5] and 128 µM against 5'-3' exonuclease PLD4 [6].

B1: 5'-3' exonuclease PLD4 (Homo sapiens), Q96BZ4 (protein)
chain: MLKPLWKAAVAPTWPCSMPPRRPWDREAGTLQVLGALAVLWLGSVALICLLWQVPRPPTWGQVQPKDVPRSWEHGSSPAWEPLEAEARQQRDSCQLVLVESIPQDLPSAAGSPSAQPLGQAWLQLLDTAQESVHVASYYWSLTGPDIGVNDSSSQLGEALLQKLQQLLGRNISLAVATSSPTLARTSTDLQVLAARGAHVRQVPMGRLTRGVLHSKFWVVDGRHIYMGSANMDWRSLTQVKELGAVIYNCSHLAQDLEKTFQTYWVLGVPKAVLPKTWPQNFSSHFNRFQPFHGLFDGVPTTAYFSASPPALCPQGRTRDLEALLAVMGSAQEFIYASVMEYFPTTRFSHPPRYWPVLDNALRAAAFGKGVRVRLLVGCGLNTDPTMFPYLRSLQALSNPAANVSVDVKVFIVPVGNHSNIPFSRVNHSKFMVTEKAAYIGTSNWSEDYFSSTAGVGLVVTQSPGAQPAGATVQEQLRQLFERDWSSRYAVGLDGQAPGQDCVWQG
Broadly, the Km is the substrate concentration at which the rate is half of its maximum. For orientation: kcat means the number of substrate molecules converted per active site and unit of time at saturation. As usually defined, the Vmax is the top rate of the reaction or transport when substrate is in excess. The term kcat/Km denotes the turnover number divided by the Michaelis constant. Regarding B1, the results for the Km in data set [7] and in data set [8] were 860 µM and 378 µM, respectively. Also, the results for the catalytic constant (kcat) in data set [9] and in data set [10] were 47 s⁻¹ and 18.9 s⁻¹, respectively. Also, in [11], the Vmax is 1560 /RU/s. Moreover, the specificity constant (kcat/Km) in [12] turned out to be 86.6 M⁻¹ s⁻¹; in data set [13], 5 M⁻¹ s⁻¹.

B2: 5'-3' exonuclease PLD3 (Homo sapiens), Q8IV08 (protein)
chain: MKPKLMYQELKVPAEEPANELPMNEIEAWKAAEKKARWVLLVLILAVVGFGALMTQLFLWEYGDLHLFGPNQRPAPCYDPCEAVLVESIPEGLDFPNASTGNPSTSQAWLGLLAGAHSSLDIASFYWTLTNNDTHTQEPSAQQGEEVLRQLQTLAPKGVNVRIAVSKPSGPQPQADLQALLQSGAQVRMVDMQKLTHGVLHTKFWVVDQTHFYLGSANMDWRSLTQVKELGVVMYNCSCLARDLTKIFEAYWFLGQAGSSIPSTWPRFYDTRYNQETPMEICLNGTPALAYLASAPPPLCPSGRTPDLKALLNVVDNARSFIYVAVMNYLPTLEFSHPHRFWPAIDDGLRRATYERGVKVRLLISCWGHSEPSMRAFLLSLAALRDNHTHSDIQVKLFVVPADEAQARIPYARVNHNKYMVTERATYIGTSNWSGNYFTETAGTSLLVTQNGRGGLRSQLEAIFLRDWDSPYSHDLDTSADSVGNACRLL
As to B2, the Vmax in [14] was 313 /RU/s; in data set [15] it was 318 /RU/s; in data set [20], 327 /RU/s. For the same molecule, the kcat in [16] was 74.5 s⁻¹; in [17] it was 18.9 s⁻¹. In addition, the kcat/Km in data set [18] is 34.8 M⁻¹ s⁻¹; in data set [19] it was 6.26 M⁻¹ s⁻¹. The results for the Km in [21], in data set [22] and in data set [23] were 14.7 µM, 1350 µM and 302 µM, respectively.
